Experimental data reported in patent US20210230570.
Where a chain is given by its changes, count along the chain named. In names and notes the source's numbering stands.

B1: FIXa-I251S/R318Y/R338E/E410N (protein)
chain 1: YNSGKLEEFVQGNLERECMEEKCSFEEAREVFENTERTTEFWKQYVDGDQCESNPCLNGGSCKDDINSYECWCPFGFEGKNCELDVTCNIKNGRCEQFCKNSADNKVVCSCTEGYRLAENQKSCEPAVPFPCGRVSVSQTSKLTR
chain 2: VVGGEDAKPGQFPWQVVLNGKVDAFCGGSIVNEKWIVTAAHCVETGVKITVVAGEHNIEETEHTEQKRNVSRIIPHHNYNAAINKYNHDIALLELDEPLVLNSYVTPICIADKEYTNIFLKFGSGYVSGWGRVFHKGYSALVLQYLRVPLVDRATCLESTKFTIYNNMFCAGFHEGGRDSCQGDSGGPHVTEVEGTSFLTGIISWGEECAMKGKYGIYTKVSRYVNWIKNKTKLT
B2: FIXa-R318Y/R338E/R403E/E410N/T412A (protein)
chain 1: B1 chain 1
chain 2: B1 chain 2 with S71I, R223E, T232A
B3: FIXa-A103N/N105S/K247N/N249S/R318Y/R338E/R403E/E410N (protein)
chain 1: B1 chain 1 with A103N, N105S
chain 2: B1 chain 2 with K67N, N69S, S71I, R223E
B4: FIXa-K228N/K247N/N249S/R318Y/R338E/R403E/E410N (protein)
chain 1: B1 chain 1
chain 2: B1 chain 2 with K48N, K67N, N69S, S71I, R223E
B5: FIXa-K247N/N249S/R318Y/R338E/E410N (protein)
chain 1: B1 chain 1
chain 2: B1 chain 2 with K67N, N69S, S71I
B6: FIXa-R318Y/R338E/R403E/E410N/T412V (protein)
chain 1: B1 chain 1
chain 2: B1 chain 2 with S71I, R223E, T232V
B7: FIXa-Y155F/K247N/N249S/R318Y/R338E/R403E/E410N (protein)
chain 1: B1 chain 1
chain 2: B1 chain 2 with K67N, N69S, S71I, R223E
B8: FIXa-Y155F/K247N/N249S/R318Y/R338E/E410N (protein)
chain 1: B1 chain 1
chain 2: B1 chain 2 with K67N, N69S, S71I
B9: FIXa-D104N/K106S/K247N/N249S/R318Y/R338E/R403E/E410N (protein)
chain 1: B1 chain 1 with D104N, K106S
chain 2: B1 chain 2 with K67N, N69S, S71I, R223E
B10: FIXa-R318Y/R338E/R403E/E410S (protein)
chain 1: B1 chain 1
chain 2: B1 chain 2 with S71I, R223E, N230S
B11: FIXa Y155F/K228N/K247N/N249S (protein)
chain 1: B1 chain 1
chain 2: B1 chain 2 with K48N, K67N, N69S, S71I, Y138R, E158R, N230E
B12: FIXa R318Y/R338E/R403E/E410N/T412A (protein)
chain 1: B1 chain 1
chain 2: B1 chain 2 with S71I, R223E, T232A
B13: FIXa R318Y/R338E/R403E/T412A (protein)
chain 1: B1 chain 1
chain 2: B1 chain 2 with S71I, R223E, N230E, T232A
B14: FIXa D104N/K106S/N260S/R318Y/R338E/R403E/E410N (protein)
chain 1: B1 chain 1 with D104N, K106S
chain 2: B1 chain 2 with S71I, N80S, R223E
B15: FIXa Y259F/K265T/Y345T (protein)
chain 1: B1 chain 1
chain 2: B1 chain 2 with S71I, Y79F, K85T, Y138R, E158R, Y165T, N230E
B16: FIXa Y155F/K228N/R318Y/R338E/R403E/E410N (protein)
chain 1: B1 chain 1
chain 2: B1 chain 2 with K48N, S71I, R223E
B17: FIXa R318Y/R338E/R403E/E410S (protein)
chain 1: B1 chain 1
chain 2: B1 chain 2 with S71I, R223E, N230S
B18: FIXa R318Y/R338E/R403E/E410N/T412V (protein)
chain 1: B1 chain 1
chain 2: B1 chain 2 with S71I, R223E, T232V
B19: FIXa Y155F/K247N/N249S/R318Y/R338E/R403E/E410N (protein)
chain 1: B1 chain 1
chain 2: B1 chain 2 with K67N, N69S, S71I, R223E
B20: FIXa A103N/N105S/K247N/N249S/R318Y/R338E/R403E/E410N (protein)
chain 1: B1 chain 1 with A103N, N105S
chain 2: B1 chain 2 with K67N, N69S, S71I, R223E
B21: FIXa I251S/R318Y/R338E/E410N (protein)
chain 1: B1 chain 1
chain 2: B1 chain 2
B22: FIXa K228N/K247N/N249S/R318Y/R338E/R403E/E410N (protein)
chain 1: B1 chain 1
chain 2: B1 chain 2 with K48N, K67N, N69S, S71I, R223E
B23: FIXa D104N/K106S/I251S/R318Y/R338E/E410N (protein)
chain 1: B1 chain 1 with D104N, K106S
chain 2: B1 chain 2
B24: FIXa I251S/R318Y/R338E/R403E/E410N (protein)
chain 1: B1 chain 1
chain 2: B1 chain 2 with R223E
B25: FIXa R318Y/R338E/E410S (protein)
chain 1: B1 chain 1
chain 2: B1 chain 2 with S71I, N230S
B26: FIXa D104N/K106S/I251S/R318Y/R338E/R403E/E410N (protein)
chain 1: B1 chain 1 with D104N, K106S
chain 2: B1 chain 2 with R223E
B27: FIXa Y155F/N260S/R318Y/R338E/R403E/E410N (protein)
chain 1: B1 chain 1
chain 2: B1 chain 2 with S71I, N80S, R223E
B28: FIXa R318Y/R338E/N346D/R403E/E410N (protein)
chain 1: B1 chain 1
chain 2: B1 chain 2 with S71I, N166D, R223E
B29: FIXa K228N/R318Y/R338E/R403E/E410N (protein)
chain 1: B1 chain 1
chain 2: B1 chain 2 with K48N, S71I, R223E
B30: FIXa K228N/K247N/N249S (protein)
chain 1: B1 chain 1
chain 2: B1 chain 2 with K48N, K67N, N69S, S71I, Y138R, E158R, N230E
B31: FIXa D104N/K106S/K247N/N249S/R318Y/R338E/R403E/E410N (protein)
chain 1: B1 chain 1 with D104N, K106S
chain 2: B1 chain 2 with K67N, N69S, S71I, R223E
B32: FIXa D85N/K228N/R318Y/R338E/R403E/E410N (protein)
chain 1: B1 chain 1 with D85N
chain 2: B1 chain 2 with K48N, S71I, R223E
B33: FIXa Y155F/I251S/R318Y/R338E/R403E/E410N (protein)
chain 1: B1 chain 1
chain 2: B1 chain 2 with R223E
B34: FIXa R318Y/R338E/E410N/T412V (protein)
chain 1: B1 chain 1
chain 2: B1 chain 2 with S71I, T232V
B35: FIXa K247N/N249S/R318Y/R338E/E410N (protein)
chain 1: B1 chain 1
chain 2: B1 chain 2 with K67N, N69S, S71I
B36: FIXa R318Y/R338E/T412A (protein)
chain 1: B1 chain 1
chain 2: B1 chain 2 with S71I, N230E, T232A
B37: FIXa Y155F/K247N/N249S/R318Y/R338E/E410N (protein)
chain 1: B1 chain 1
chain 2: B1 chain 2 with K67N, N69S, S71I
B38: FIXa K247N/N249S/R318Y/R338E/R403E/E410N (protein)
chain 1: B1 chain 1
chain 2: B1 chain 2 with K67N, N69S, S71I, R223E
B39: FIXa D104N/K106S/K228N/K247N/N249S (protein)
chain 1: B1 chain 1 with D104N, K106S
chain 2: B1 chain 2 with K48N, K67N, N69S, S71I, Y138R, E158R, N230E
B40: FIXa D104N/K106S/Y155F/K228N/K247N/N249S (protein)
chain 1: B1 chain 1 with D104N, K106S
chain 2: B1 chain 2 with K48N, K67N, N69S, S71I, Y138R, E158R, N230E
B41: FIXa N260S/R318Y/R338E/R403E/E410N (protein)
chain 1: B1 chain 1
chain 2: B1 chain 2 with S71I, N80S, R223E

These proteins were tested against plasma purified human AT-III (antithrombin III), in complex with full-length unfractionated heparin (AT-III/UFH).
B1 showed a K0.5-mut/K0.5-wt (against Catalyst Biosciences WT FIXa) of 303.
For B2, the K0.5-mut/K0.5-wt (against Catalyst Biosciences WT FIXa) was greater than 517.
B3 showed a K0.5-mut/K0.5-wt (against Catalyst Biosciences WT FIXa) of 129.
Work on B4 yielded a K0.5-mut/K0.5-wt (against Catalyst Biosciences WT FIXa) greater than 517.
B5 gave a K0.5-mut/K0.5-wt (against Catalyst Biosciences WT FIXa) of 78.3.
Protein B6 has a K0.5-mut/K0.5-wt (against Catalyst Biosciences WT FIXa) greater than 517.
B7 showed a K0.5-mut/K0.5-wt (against Catalyst Biosciences WT FIXa) greater than 517.
Protein B8 has a K0.5-mut/K0.5-wt (against Catalyst Biosciences WT FIXa) of 200.
Protein B9 has a K0.5-mut/K0.5-wt (against Catalyst Biosciences WT FIXa) greater than 517.
B10 gave a K0.5-mut/K0.5-wt (against Catalyst Biosciences WT FIXa) greater than 517.

These proteins were tested against Factor X, P00742.
Sequence of Factor X, P00742 (P00742 whole entry, looked up): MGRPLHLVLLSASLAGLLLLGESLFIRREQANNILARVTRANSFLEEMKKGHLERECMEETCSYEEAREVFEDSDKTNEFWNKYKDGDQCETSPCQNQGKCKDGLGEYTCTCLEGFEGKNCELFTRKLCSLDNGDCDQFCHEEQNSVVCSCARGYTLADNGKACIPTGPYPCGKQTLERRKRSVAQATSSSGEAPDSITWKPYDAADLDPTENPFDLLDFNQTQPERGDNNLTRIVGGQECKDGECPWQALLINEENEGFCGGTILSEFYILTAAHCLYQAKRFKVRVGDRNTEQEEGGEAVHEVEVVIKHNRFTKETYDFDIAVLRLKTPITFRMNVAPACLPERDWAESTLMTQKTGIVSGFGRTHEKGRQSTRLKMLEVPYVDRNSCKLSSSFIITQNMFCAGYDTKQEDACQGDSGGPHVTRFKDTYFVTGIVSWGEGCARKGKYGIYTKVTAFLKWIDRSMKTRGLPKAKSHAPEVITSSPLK
With B1 the kcat of FX activation by FIXa (Xase complex with FVIIIa, PC/PS vesicles, Ca2+) was 6.2 s⁻¹.
With B2 the kcat of FX activation by FIXa (Xase complex with FVIIIa, PC/PS vesicles, Ca2+) was 8.4 s⁻¹.
For B3, the kcat of FX activation by FIXa (Xase complex with FVIIIa, PC/PS vesicles, Ca2+) was 4.1 s⁻¹.
B4 gave a kcat of FX activation by FIXa (Xase complex with FVIIIa, PC/PS vesicles, Ca2+) of 6.1 s⁻¹.
With B5 the kcat of FX activation by FIXa (Xase complex with FVIIIa, PC/PS vesicles, Ca2+) was 3.8 s⁻¹.
B6 showed a kcat of FX activation by FIXa (Xase complex with FVIIIa, PC/PS vesicles, Ca2+) of 7.9 s⁻¹.
B7 showed a kcat of FX activation by FIXa (Xase complex with FVIIIa, PC/PS vesicles, Ca2+) of 6.5 s⁻¹.
B8 was tested, and the kcat of FX activation by FIXa (Xase complex with FVIIIa, PC/PS vesicles, Ca2+) was 4.3 s⁻¹.
Protein B9 has a kcat of FX activation by FIXa (Xase complex with FVIIIa, PC/PS vesicles, Ca2+) of 5.2 s⁻¹.
B10 showed a kcat of FX activation by FIXa (Xase complex with FVIIIa, PC/PS vesicles, Ca2+) of 5.8 s⁻¹.

These proteins were tested against plasma purified human antithrombin III (AT-III) in complex with full-length unfractionated heparin (UFH).
Protein B11 has a K0.5-mut/K0.5-wt of 1.4 fold.
With B12 the K0.5-mut/K0.5-wt was greater than 517 fold.
For B13, the K0.5-mut/K0.5-wt was greater than 517 fold.
For B14, the K0.5-mut/K0.5-wt was greater than 517 fold.
In the case of B15, the K0.5-mut/K0.5-wt is reported as 0.3 fold.
In the case of B16, the K0.5-mut/K0.5-wt is reported as greater than 517 fold.
Protein B17 has a K0.5-mut/K0.5-wt greater than 517 fold.
In the case of B18, the K0.5-mut/K0.5-wt is reported as greater than 517 fold.
Work on B19 yielded a K0.5-mut/K0.5-wt greater than 517 fold.
Work on B20 yielded a K0.5-mut/K0.5-wt of 129 fold.
For B21, the K0.5-mut/K0.5-wt was 303 fold.
Work on B22 yielded a K0.5-mut/K0.5-wt greater than 517 fold.
Protein B23 has a K0.5-mut/K0.5-wt of 464 fold.
Work on B24 yielded a K0.5-mut/K0.5-wt greater than 517 fold.
B25 was tested, and the K0.5-mut/K0.5-wt was 279 fold.
In the case of B26, the K0.5-mut/K0.5-wt is reported as greater than 517 fold.
B27 showed a K0.5-mut/K0.5-wt of 501 fold.
With B28 the K0.5-mut/K0.5-wt was greater than 517 fold.
B29 gave a K0.5-mut/K0.5-wt greater than 517 fold.
B30 was tested, and the K0.5-mut/K0.5-wt was 4.4 fold.
For B31, the K0.5-mut/K0.5-wt was greater than 517 fold.
Protein B32 has a K0.5-mut/K0.5-wt greater than 517 fold.
Protein B33 has a K0.5-mut/K0.5-wt greater than 517 fold.
B34 showed a K0.5-mut/K0.5-wt of 252 fold.
B35 showed a K0.5-mut/K0.5-wt of 78.3 fold.
Work on B36 yielded a K0.5-mut/K0.5-wt of 396 fold.
For B37, the K0.5-mut/K0.5-wt was 200 fold.
B38 was tested, and the K0.5-mut/K0.5-wt was 418 fold.
With B39 the K0.5-mut/K0.5-wt was 2.1 fold.
Protein B40 has a K0.5-mut/K0.5-wt of 1.6 fold.
B41 showed a K0.5-mut/K0.5-wt greater than 517 fold.

The proteins below were run against Factor X (FX), P00742.
Sequence of Factor X (FX), P00742 (P00742 whole entry, looked up): as above
B1 showed a kcat/KM of 3.9e+08 M⁻¹ s⁻¹.
Work on B12 yielded a KM of 0.0335 µM.
In the case of B18, the KM is reported as 0.0443 µM.
Work on B2 yielded a kcat/KM of 2.6e+08 M⁻¹ s⁻¹.
With B22 the KM was 0.0558 µM.
For B3, the kcat/KM was 1.5e+08 M⁻¹ s⁻¹.
Work on B6 yielded a kcat/KM of 1.9e+08 M⁻¹ s⁻¹.
B7 was tested, and the kcat/KM was 1.9e+08 M⁻¹ s⁻¹.
Work on B8 yielded a kcat/KM of 3.3e+08 M⁻¹ s⁻¹.
B10 was tested, and the kcat/KM was 2.1e+08 M⁻¹ s⁻¹.
